# Paper PMC9917443
# Biological target: purified recombinant SD1/2 protein
# Assay: ITC; peptide (300 μM in the syringe) injected into SD1/2 protein (30 μM) in the cell; 25°C; 20 mM NaPi (pH 6.8), 50 mM NaCl, 0.5 mM EDTA; one-site binding model
Kd,stoichiometry N,Binder
> 300000 nM,–,Ac-DWGADTVSGDGYDAWDD-NH2 [sc-APP17]
543 nM,1.05,Ac-DDSDVWWGGADTDYADG-NH2 [APP17]
